What was measured:
[1] = biological target: RSV A + RSV B bivalent composition (RSV subtype A; RSV subtype B); experiment: AM14 Fab titration by SEC; Target cycle; 1 M 25°C
[2] = biological target: RSV A + RSV B bivalent composition (RSV subtype A; RSV subtype B); experiment: AM14 Fab titration by SEC; Target cycle; 1 M 40°C
[3] = biological target: RSV A + RSV B bivalent composition (RSV subtype A; RSV subtype B); experiment: AM14 Fab titration by SEC; Target cycle; 3 M 25°C
[4] = biological target: RSV A + RSV B bivalent composition (RSV subtype A; RSV subtype B); experiment: AM14 Fab titration by SEC; Target cycle; 8 M 25°C
[5] = biological target: RSV A + RSV B bivalent composition (RSV subtype A; RSV subtype B); experiment: AM14 Fab titration by SEC; Target cycle; 1 M 2-8°C
[6] = biological target: RSV A + RSV B bivalent composition (RSV subtype A; RSV subtype B); experiment: AM14 Fab titration by SEC; Low-Fast cycle; 3 M 40°C
[7] = biological target: RSV A + RSV B bivalent composition (RSV subtype A; RSV subtype B); experiment: AM14 Fab titration by SEC; Low-Fast cycle; 8 M 40°C
[8] = biological target: RSV A + RSV B bivalent composition (RSV subtype A; RSV subtype B); experiment: AM14 Fab titration by SEC; Low-Fast cycle; 1 M 2-8°C
[9] = biological target: RSV A + RSV B bivalent composition (RSV subtype A; RSV subtype B); experiment: AM14 Fab titration by SEC; High-Slow 2 cycle; 1 M 40°C
[10] = biological target: RSV A + RSV B bivalent composition (RSV subtype A; RSV subtype B); experiment: AM14 Fab titration by SEC; High-Slow 2 cycle; 3 M 25°C
[11] = biological target: RSV A + RSV B bivalent composition (RSV subtype A; RSV subtype B); experiment: AM14 Fab titration by SEC; Target cycle; T0 (second value)
[12] = biological target: RSV A + RSV B bivalent composition (RSV subtype A; RSV subtype B); experiment: AM14 Fab titration by SEC; Target cycle; 3 M 2-8°C (second value)
[13] = biological target: RSV A + RSV B bivalent composition (RSV subtype A; RSV subtype B); experiment: AM14 Fab titration by SEC; Low-Fast cycle; 1 M 25°C (second value)
[14] = biological target: RSV A + RSV B bivalent composition (RSV subtype A; RSV subtype B); experiment: AM14 Fab titration by SEC; Low-Fast cycle; 3 M 25°C (second value)
[15] = biological target: RSV A + RSV B bivalent composition (RSV subtype A; RSV subtype B); experiment: AM14 Fab titration by SEC; Low-Fast cycle; 1 M 2-8°C (second value)
[16] = biological target: T1, RSV F protein of subtype A comprising a polypeptide of SEQ ID NO: 1 and a polypeptide of SEQ ID NO: 2 (RSV subtype A, UniProt P11209 137-513; P03420 26-109); experiment: AM14 ELISA; F4 (pH 6, 50 mM NaCl, 4.5% sucrose); T0
T1 construct: Stabilized prefusion F trimer made of three F2-F1 heterodimers; Produced recombinantly in CHO cells; also called RSV A; RSVA
T1 chain 1: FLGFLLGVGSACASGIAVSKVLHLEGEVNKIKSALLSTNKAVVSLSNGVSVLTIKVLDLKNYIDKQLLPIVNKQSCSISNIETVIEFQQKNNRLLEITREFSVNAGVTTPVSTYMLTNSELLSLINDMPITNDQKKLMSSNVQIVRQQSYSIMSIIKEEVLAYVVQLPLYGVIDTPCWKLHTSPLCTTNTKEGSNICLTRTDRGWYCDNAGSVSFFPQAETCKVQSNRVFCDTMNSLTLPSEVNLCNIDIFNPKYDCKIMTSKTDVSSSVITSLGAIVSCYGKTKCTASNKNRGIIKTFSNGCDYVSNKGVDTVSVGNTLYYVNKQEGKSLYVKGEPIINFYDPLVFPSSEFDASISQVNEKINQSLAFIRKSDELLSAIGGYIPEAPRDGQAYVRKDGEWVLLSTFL
T1 chain 2: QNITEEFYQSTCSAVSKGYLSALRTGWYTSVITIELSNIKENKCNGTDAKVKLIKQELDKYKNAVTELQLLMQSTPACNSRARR

[17] = biological target: T1, RSV F protein of subtype A comprising a …; experiment: AM14 ELISA; F15 (pH 6, 0 mM NaCl, 9% sucrose); 2 wk 5°C
[18] = biological target: T1, RSV F protein of subtype A comprising a …; experiment: AM14 ELISA; F4 (pH 6, 50 mM NaCl, 4.5% sucrose); 2 wk 5°C
[19] = biological target: T1, RSV F protein of subtype A comprising a …; experiment: AM14 ELISA; F5 (pH 6, 100 mM NaCl, 9.0% sucrose); 1 wk 25°C
[20] = biological target: T1, RSV F protein of subtype A comprising a …; experiment: AM14 ELISA; F5 (pH 6, 100 mM NaCl, 9.0% sucrose); 2 wk 25°C
[21] = biological target: T1, RSV F protein of subtype A comprising a …; experiment: AM14 ELISA; F19 (pH 7, 50 mM NaCl, 3% trehalose + 3% mannitol); 2 wk 5°C

Q: For AM14 Fab, which Prefusion Content (%) [1] is on record?
A: 65%

Q: And the Prefusion Content (%) [2]?
A: 64%

Q: What about the Prefusion Content (%) [3] of the same molecule?
A: 71%

Q: What about the Prefusion Content (%) [4] of the same molecule?
A: 75%

Q: What about the Prefusion Content (%) [5] of the same molecule?
A: 59%

Q: What about the Prefusion Content (%) [6] of the same molecule?
A: 70%

Q: And the Prefusion Content (%) [7]?
A: 63%

Q: What about the Prefusion Content (%) [8] of the same molecule?
A: 53%

Q: And the Prefusion Content (%) [9]?
A: 52%

Q: And the Prefusion Content (%) [10]?
A: 74%

Q: And the Prefusion Content (%) [11]?
A: 77%

Q: And the Prefusion Content (%) [12]?
A: 70%

Q: What about the Prefusion Content (%) [13] of the same molecule?
A: 71%

Q: What about the Prefusion Content (%) [14] of the same molecule?
A: 68%

Q: What about the Prefusion Content (%) [15] of the same molecule?
A: 53%

B1: AM14 (trimeric prefusion specific antibody of the AM14 ELISA) (antibody, V domains shown)
VH: EVQLVESGGGVVQPGRSLRLSCAASGFSFSHYAMHWVRQAPGKGLEWVAVISYDGENTYYADSVKGRFSISRDNSKNTVSLQMNSLRPEDTALYYCARDRIVDDYYYYGMDVWGQGATVTVSS
VL: DIQMTQSPSSLSASVGDRVTITCQASQDIKKYLNWYHQKPGKVPELLMHDASNLETGVPSRFSGRGSGTDFTLTISSLQPEDIGTYYCQQYDNLPPLTFGGGTKVEIKR
notes: Antibody as used in the AM14 ELISA, detected with an HRP-labeled secondary antibody
Q: B1 was tested. Which “AM14 prefusion content (%), relative to standard” value [16] did it give?
A: 57%

Q: And the “AM14 prefusion content (%), relative to standard” value [17]?
A: 84%

Q: And the “AM14 prefusion content (%), relative to standard” value [18]?
A: 62%

Q: And the “AM14 prefusion content (%), relative to standard” value [19]?
A: 97%

Q: And the “AM14 prefusion content (%), relative to standard” value [20]?
A: 98%

Q: And the “AM14 prefusion content (%), relative to standard” value [21]?
A: 75%

Reference: patent US20260097113A1 (Pfizer, published 2026)
